Laboratory results taken from patent US20250115641A1 (H LEE MOFFITT CANCER CENTER AND RESEARCH INSTITUTE, published 2025).
Bridge positions count the residues as written; N and C are the ends. Square brackets hold non-standard residues; d marks the D form. Primed or numbered codes have the meaning given here. S5 = C=CCCC[C@](C)(N)C(=O)O; Nle = CCCC[C@H](N)C(=O)O; FITC′ = fluorescein; βAla = NCCC(=O)O

Assays:
[1] = target: T1, human NLRP3^PYD (residues 3-110, C-terminal 6 x histidine) (human, UniProt Q96P20 3-110); assay: fluorescence polarization binding assay, FITC-labelled peptide
T1 construct: range 3-110; also called His6-NLRP3^PYD

[2] = target: T2, human N-terminally GST tagged ASC^PYD (human, UniProt Q9ULZ3 1-106); assay: as above
T2 construct: range 1-106; Expressed in E. coli from pGEX-4T1; also called GST-ASC^PYD; not shown: N-terminal GST (glutathione S-transferase) tag of the pGEX-4T1 vector
T2 sequence (Q9ULZ3 1-106): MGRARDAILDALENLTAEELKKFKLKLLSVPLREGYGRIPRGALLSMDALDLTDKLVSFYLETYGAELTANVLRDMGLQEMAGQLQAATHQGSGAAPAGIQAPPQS

T1 sequence (Q96P20 other isoform, or with tags, fused parts or gaps limits assumed): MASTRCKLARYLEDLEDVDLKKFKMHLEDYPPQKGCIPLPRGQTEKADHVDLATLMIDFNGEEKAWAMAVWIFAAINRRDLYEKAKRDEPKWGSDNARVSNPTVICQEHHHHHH

B1: fSAH-POP1-5 (peptide)
peptide: AQXLKKXKXKLGTA
modifications: N-terminal fluorescein (FITC) on β-alanine; S5 = (S)-2-(4-pentenyl)alanine residues covalently linked (hydrocarbon staple); made on Rink amide resin
notes: also called peptide 56
fold change of KD against fSAH-POP1-4 (higher) [1]: 1.5 fold

B2: fSAH-POP1-4 (peptide)
peptide: AEXLKKXKXKLGTV
modifications: N-terminal fluorescein (FITC) on β-alanine; S5 = (S)-2-(4-pentenyl)alanine residues covalently linked (hydrocarbon staple); made on Rink amide resin
notes: FITC-labelled stapled peptide; also called peptide 54
binding result [1]: binds

{FITC′}-[βAla]EELKKFK[Nle]KLGTV-NH2 (also called peptide 55) [fPOP1-H2]
binding result [1]: binds

B3: fSAH-POP1-6 (peptide)
peptide: XQXLKKXKXKLWTA
modifications: N-terminal fluorescein (FITC) on β-alanine; S5 = (S)-2-(4-pentenyl)alanine residues covalently linked (hydrocarbon staple); made on Rink amide resin
notes: also called peptide 57
fold change of KD against fSAH-POP1-5 (lower) [1]: 2 fold

{FITC′}-[βAla]Q[S5]LRR[S5]QWKLWTS-NH2 (staple 3-7, also called peptide 67) [fSAH-POP1-16]
binding result [2]: binds

{FITC′}-[βAla]Q[S5]LRK[S5]QWKLWTA-NH2 (staple 3-7, also called peptide 63) [fSAH-POP1-12]
fold increase of binding affinity against fSAH-POP1-10 [1]: 10 fold
